Results as given in patent US20240132572A1.

Legend:
[1] = biological target: IFN alpha receptor (IFNAR) (UniProt P17181); experiment: cell-based or functional assay
[2] = biological target: IFN-alpha receptor 1 (IFNAR1) (UniProt P17181); experiment: SPR (Biacore X100); rhIFNAR2 immobilised on CM5 chip; 6.25-100 nM IFN fusion mixed with 100 nM IFNAR1 injected (ternary complex)

Row | IC50 (nM), antiviral activity (cytopathic effect inhibition, A549 cells, EMCV) [1] [nM] | Kd [2] [nM] | inhibition of osteopontin (OPN) production in stimulated human PBMC at 1.5 ng/mL [1] [%] | inhibition of osteopontin (OPN) production in stimulated human PBMC at 10 ng/mL [1] [%] | Substance
1 | 0.0313 | 18 |  |  | interferon alpha Fc fusion protein (IFNα-Fc)
2 |  |  | 88.4 | 81.3 | natural fibroblast derived human IFNβ-1a (Rebif®) (from UniProt P01574 22-187) (ligand)
